Experimental data published in US20240101670A1.

Target: Human C1q (human) (UniProt P02745)
Experiment: ELISA: antibody coated on the plate at the concentration shown, human C1q added at 10 ug/mL, detection with sheep anti-human C1q-HRP, OD450

Chain of Human C1q (human) (P02745 23-245 limits assumed, chain 1 of 3): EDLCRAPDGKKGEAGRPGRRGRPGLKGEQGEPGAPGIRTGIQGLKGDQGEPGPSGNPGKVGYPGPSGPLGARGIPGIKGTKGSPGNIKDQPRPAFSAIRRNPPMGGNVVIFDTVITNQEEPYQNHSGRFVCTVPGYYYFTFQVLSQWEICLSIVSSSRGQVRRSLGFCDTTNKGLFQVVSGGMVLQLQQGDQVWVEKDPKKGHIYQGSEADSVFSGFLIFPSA
Chain of Human C1q (human) (P02746 28-253 limits assumed, chain 2 of 3, further chain): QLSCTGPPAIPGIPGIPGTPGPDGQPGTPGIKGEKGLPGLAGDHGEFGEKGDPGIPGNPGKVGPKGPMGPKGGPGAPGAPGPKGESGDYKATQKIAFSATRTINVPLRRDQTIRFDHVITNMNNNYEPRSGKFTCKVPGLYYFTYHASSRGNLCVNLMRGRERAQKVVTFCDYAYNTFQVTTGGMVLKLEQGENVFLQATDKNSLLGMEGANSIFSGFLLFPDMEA
Chain of Human C1q (human) (P02747 29-245 limits assumed, chain 3 of 3, further chain): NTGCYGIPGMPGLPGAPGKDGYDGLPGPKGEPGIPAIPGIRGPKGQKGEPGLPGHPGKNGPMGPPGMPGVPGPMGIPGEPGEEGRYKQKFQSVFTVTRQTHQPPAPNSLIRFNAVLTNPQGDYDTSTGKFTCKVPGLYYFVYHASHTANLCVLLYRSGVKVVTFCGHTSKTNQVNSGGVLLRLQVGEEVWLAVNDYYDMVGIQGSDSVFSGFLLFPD

human IgG1 isotype control antibody
EC50 (read off the curve): 2 µg/mL
